Results published in PMC3553968 (Nucleic Acids Research, 2012).

B1: Noc1p (recombinant, untagged) (natural protein)
chain: MSENNGNPLDLSSLRNKISSKLRDNNSKKAKKTHKGKDVKASSNSKKVNEDIRREALALGASEEDLKLIQGLSDDDDAKSEQEFDAVADEDADDKGFKNDLQNFMKNVGFDQHKLEDVDDDDIEEESTSSKESKIPAQEKEHAQSNIASSTIEKTSQESIDNGSEQEENTVEEANLSSDQEPESESAEKEKKEEKDGGLITQTTIISSDKLIIPYDKPWYEIPLDPQVGQNDDVEELSKEQIEKLFERGKQTLEADNQTYYEEFTKDSSQAKFMSQILSDGTLNDKISAVTLLIQDSPLHNTKSLETLVSYCGKKSRNSALQSLNALKDLFLNGLLPNRKLRYFKNQPGLSMMLNKKTLAIFYFEDYLKKLFFRVLEVLEVLSHDPIIHVRLQILNHVFDLLTNQPEQEFNLLRLGVNKIGDIDSKVSSKASYLLLKLEQAHPNMKSIVIDAIVDIALRPNADYHTTYYSVITLNQTILKRSEDSVANKLVKTYFTLFEKFLINTDKDNTNGVVKSNSKSYEEKRKKNFKKGKHGGKSVKIEKTENEVLDEKNSKLFSALLTGINRAFPFAQIPASVYEVHMETLFKITHSSNFNTSIQALVLINQVTVKAKLNSDRYYRTLYESLFDPRLVNSSKQGIYLNLLYKSLKQDALNVERVEAFVKRILQVCSHWLNVGTITGFFFLLIQLAKTVPQIKNLLTNTPVDYEYESDAEEEQGDKDIKRKEYDGRKRDPKFANAEKSSLWEINNFINHFHPTVKTYANAYVTGETEQIAKPDLGLFTLSHFLDRFVYRSAKQTNTARGTSIMQPLFSGSRVNDSVLVKASDIMHDQGPVNTEDWLTKKVEDIKPEDKFFYQYFTTKKTADGKGKKSNKASNFDSDDEMDENEIWSALVKSRPDVEDDSDDSELDFAEDDFSDSTSDDEPKLDAIDDEDAKSEGSQESDQEEGLDEDIFYSFDGEQDNSDKKRSFAESSEEDESSEEEKEEEENKEVSAKRAKKKQRKNMLKSLPVFASADDYAQYLDQDSD

What was measured:
[1] = molecular target: HA-Rrp5p (S. cerevisiae, UniProt Q05022 1-1729); experiment: SEC
Chain of HA-Rrp5p (Q05022 whole entry): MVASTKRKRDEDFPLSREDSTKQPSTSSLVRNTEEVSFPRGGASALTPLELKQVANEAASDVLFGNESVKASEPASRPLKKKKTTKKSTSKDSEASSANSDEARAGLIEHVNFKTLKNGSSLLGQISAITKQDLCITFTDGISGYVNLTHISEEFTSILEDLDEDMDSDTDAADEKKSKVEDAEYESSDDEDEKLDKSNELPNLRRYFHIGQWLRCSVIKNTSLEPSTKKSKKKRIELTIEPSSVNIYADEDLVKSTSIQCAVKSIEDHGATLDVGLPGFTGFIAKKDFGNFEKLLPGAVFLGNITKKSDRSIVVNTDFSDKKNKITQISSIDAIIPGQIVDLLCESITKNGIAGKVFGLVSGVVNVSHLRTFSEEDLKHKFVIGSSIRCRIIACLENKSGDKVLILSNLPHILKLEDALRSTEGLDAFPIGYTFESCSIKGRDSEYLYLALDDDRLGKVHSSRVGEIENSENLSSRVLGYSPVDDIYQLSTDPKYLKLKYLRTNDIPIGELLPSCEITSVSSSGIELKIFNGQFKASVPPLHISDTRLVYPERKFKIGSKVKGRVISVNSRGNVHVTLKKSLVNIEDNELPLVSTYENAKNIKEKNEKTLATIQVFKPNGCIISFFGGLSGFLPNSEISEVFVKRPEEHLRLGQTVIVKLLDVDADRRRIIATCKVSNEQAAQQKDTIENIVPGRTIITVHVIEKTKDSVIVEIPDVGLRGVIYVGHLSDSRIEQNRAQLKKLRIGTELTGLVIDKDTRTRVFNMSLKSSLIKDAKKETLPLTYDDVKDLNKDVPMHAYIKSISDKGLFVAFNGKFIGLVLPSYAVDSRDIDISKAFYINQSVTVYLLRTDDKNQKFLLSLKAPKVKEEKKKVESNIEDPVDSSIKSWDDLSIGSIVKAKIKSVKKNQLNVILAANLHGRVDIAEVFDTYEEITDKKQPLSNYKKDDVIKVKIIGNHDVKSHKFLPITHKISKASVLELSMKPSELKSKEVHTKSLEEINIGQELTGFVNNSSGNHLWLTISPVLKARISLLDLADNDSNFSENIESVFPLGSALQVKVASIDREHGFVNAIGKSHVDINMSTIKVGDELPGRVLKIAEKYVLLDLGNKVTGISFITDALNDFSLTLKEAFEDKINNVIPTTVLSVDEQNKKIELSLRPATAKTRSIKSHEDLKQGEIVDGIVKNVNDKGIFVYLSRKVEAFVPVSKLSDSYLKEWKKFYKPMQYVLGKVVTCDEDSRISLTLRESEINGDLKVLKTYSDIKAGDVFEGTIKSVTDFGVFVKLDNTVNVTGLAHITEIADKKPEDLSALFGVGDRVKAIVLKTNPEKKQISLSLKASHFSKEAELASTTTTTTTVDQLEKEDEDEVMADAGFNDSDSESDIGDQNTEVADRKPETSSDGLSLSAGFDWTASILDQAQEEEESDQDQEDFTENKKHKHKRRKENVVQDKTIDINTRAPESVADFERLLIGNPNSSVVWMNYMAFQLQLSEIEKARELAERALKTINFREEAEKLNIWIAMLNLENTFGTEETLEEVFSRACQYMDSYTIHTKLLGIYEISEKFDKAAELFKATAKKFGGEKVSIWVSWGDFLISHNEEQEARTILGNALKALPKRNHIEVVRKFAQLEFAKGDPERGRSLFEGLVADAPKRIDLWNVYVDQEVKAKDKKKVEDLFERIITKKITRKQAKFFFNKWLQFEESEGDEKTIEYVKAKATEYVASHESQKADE

[2] = molecular target: B1; experiment: SEC

| binding result [1] | binding result [2] | Binder |
| --- | --- | --- |
| binds |  | B1 |
|  | binds | Flag-Noc2p (natural protein) MGKVSKSTKKFQSKHLKHTLDQRRKEKIQKKRIQGRRGNKTDQEKADAAGTREQQQLKKSAKEEVFKDMSVETFFEKGIEIPKENKKLKKKTTKEQSDEDSSSSEEEEDMGQSMAKLAEKDPEFYKYLEENDKDLLDFAGTNPLDGIDSQDEGEDAERNSNIEEKSEQMELEKEKIELSLKLVRKWKKQLHDSPSLKLLRNIISAFKVAVNLNKEENIEDYKYAITDEKAFHELMFMVLKDVPQAIQKMAPYKIVKGARTLPNGGNVSRVSSIVKSHAGSLLILLNDITNTETAALVLHSVNELMPYLLSYRRILKELIKSIVGVWSTTRELETQIASFAFLINTTKEFKKSMLETTLKTTYSTFIKSCRKTNMRSMPLINFQKNSAAELFGIDEVLGYQVGFEYIRQLAIHLRNTMNATTKKSSKINSAEAYKIVYNWQFCHSLDFWSRVLSFACQPEKENGSESPLRQLIYPLVQVTLGVIRLIPTPQFFPLRFYLIKSLIRLSQNSGVFIPIYPLLSEILTSTAFTKAPKKSPNLAAFDFEHNIKCTQAYLNTKIYQEGLSEQFVDLLGDYFALYCKNIAFPELVTPVIISLRRYIKTSTNVKLNKRLSTVVEKLNQNSTFIQEKRSDVEFGPTNKSEVSRFLNDVAWNKTPLGSYVAVQREVKEEKARLMRESMEEQDKERETEEAKLLNSLESDDDNEDVEMSDA |
